Assay: soluble on expression in E. coli; label from the status in PepcDB or PDB records

Row | Sequence | soluble on expression in E. coli
1 | MGSDKIHHHHHHLSFLYVYERSAKIGVQENCVVVESKKENLKRILPIEGVENVIIFGDASLSSNCVKQFMERDINLTWLSSRGKFYGRLESTRNVNIYRQRKQFACGEDDEFCLALAKRIILAKVKNQITILRRYRRNRPEKSVQKIIDAMAKLLPIMERVHNKDELMGHEGMAARYYYQGLAELVEPDFAFSGRNRQPPRDPFNSLLSFAYTLLMYDLYTAAVNRGLNPYASFLHSIRRGHPALCSDLMEEWRAILADSLALYVTSKGIIKRENFEKPNEEGGVYLDGIGSKAFIAEYEKKVRGRSNYLAYVDYSVSFRRAMEMQCQRLAKAIEEGDPSIYQPVVIR | not soluble
2 | MGSDKIHHHHHHLSNYINDLRQKVGNAPLILNTATGALFNNAGEVLLQERVDTKDWGFPGGYLEYGETYKKAIMREFQEDTGLSVIPEKLIQNTDDTFYKYPNGDQIQSINQFFLVRYLEGTLLSVKTGETTRLKYFKLDQPPQFFNEQHAEMFKKIQRMRE | not soluble
3 | MGSDKIHHHHHHLSPSVYPKSMADMETIVTSVYANMVAVPLYGKRVMAKGTFCVDHTVDMAWTGDANWNQLATNQVTSDNAYIGTLWIGYYKMISCANTVLEQLERIDKEKFTDADLARLSQMKGEALFWRGWAHQQLVAFFGEGYPCNGDGDKKGVPVRLQVASTPDMLNIERSTVAEVYDQILKDYEAAKLLLPAVWEERADYPRPTSVAVASYIGQANLYMGNYDAAKKALKEVIDSSGKELLPFNEYAKMFNEDQEKFNRESILEINFRNGDTSGYFWYGEGSQYGLIAALCFQNASGDVEAAGWGNIFFHDANIKRFNGDPRLDIAALRPGTPVIMNGQQTQVLKYKDTEADIQGWSMRKYNPLKSTVNELNLGVGINMYLMRLADVYLMYAEACQATGDEVNARNYMNLVRRRAYNGDSSHDITASGEALRDAIREERFMEFCGEGVQHWQDVCRWKVLDEEISRWYGKTRVGNPHYDAKDLYFPIPKVEMENNPNMTQSIGYENE | not soluble
4 | MGSDKIHHHHHHLTEFTLMVAPNGARRGKADHPALPMTAPELAETALACHRLGAQALHLHVRDAEGVHSLDAGRYREAMSLVSEAVPTMGIQITTESAGLFDVGAQLACLEALRPAAASVSVREMARDKSLAARAYALCSEAGTQVQHILYTPECVEQLEAWYADGTVPDEMRDVILVLGQYATGQPARPAMLPPFLALIAPLDLRWSLCAFGPEEHACLLAAVEAGGQVRIGFENSLGPMGGPAWADNAASVEAFLNLTVARGHTLDPHQNMPGANLRELT | not soluble
5 | MGSDKIHHHHHHLTLESKYHKKPEEIEEEQLWIEKAKQNPQHFAVLYEKYYKTIFLYLFRKVNDMDVAGDLCSDVFSKALSAIQSYEYKGVPYSAWLYRIAANEANMYFRKHNKREMICIDDTSIHLLNEDLQESNEENIYLTFLPLCLERLKPDEVILVQWRFFENKAFKEVGEIMNMTENNAKVKTYRILEKIRKWMLEMKGKSNE | not soluble
6 | MGSDKIHHHHHHLVEKRRVMSNLETNQGRLAAIETFAERCPDCGSLLYRPKGLSKVTGKKMAGVCMNCGYKQPPTEPKNVTPDMEKEARKNRTVGYYLAYSVFSTDAIIAKDFNNFHTDGSLGQQQLKLFAVGLSNKICRNEVVHALIIGDTGVGKSHIANGILIDTQAKTGYRKTCLFIDWNALMQRLKSGMSANAQDVRMKNEKIMHEIGKADVVVIDDLGSERGSDFDRQTADDVFRMREDKATIVTTNLHGQDLNKRYGERTMSRMAKHGQGNSFGVKGILDQRKEALP | not soluble
7 | MGSDKIHHHHHHMAADVATPFQQLRINKFAAIQNGQFVASFKVPRSAGFTLIIPNADDFLTNNISIMTPDNKVLDASNFAAFGVEFSQFSPDNELTAFLATGNSWIIKFSDVIPGSYTVRGVTSSAKSHLPIRVLVKNSDIALHLVIGSPSNIPMVNHHLPISVLMVDGDLPYINGNVSFEIFKDGEALQHANIRDDGVYPDYQANDGTYSTLFMPLSAGVYDVLINISGRNKNGDKFEAQIFRSFKVLQDNVYLTGKHSEVLIDEDGDGYNDALMLEFETGGVFQEEGVYYITVNLETNDGRTLVAHQRIESPEKKFYVKFDGKYLGTLDYSGAFKFFSIVIEYNDSIIHLNQSFGSTSYYDHDSWERDDLLYLGNVTFEPIYSADGRFIEMIDVSFEVDTLPTAARFGYSATITTVGNEHVGVYGNPDIELKKGINRITFSIPAADFAKLQSNTALKISQLTMYPLIKGGNVISKRNVATSELYSCWDFRGCSTAENAIPVAVDDEVTSTGKAMYIHVAQNDYDGDLLKVSDQKKDNFGTLTQWSIQFD | not soluble
8 | MGSDKIHHHHHHMAAKPPLTLYLAAPRGFCAGVDRAIKIVEMALEKWGAPVYVRHEIVHNKFVVDGLRDKGAVFVEELEECPDDRPVIFSAHGVPKSVPAAAEARQMVYVDATCPLVSKVHIEAQRHAEAGLQMIMIGHKGHPETVGTMGQLPEGEVLLVETVEDVAQVEVRDPERLAFVTQTTLSVDDTKDIVAALQARFPAIVGPHKEDICYATTNRQEAVKEVAPKADALLVVGAPNSSNSRRLVEVGAKNGCSYAQLVQRAENIDWRALEGIQSIAITAGASAPELLVNEVIDAFRDRYEVTVELVETAVERVEFKVPRVLRTA | not soluble
9 | MGSDKIHHHHHHMADNVKANKMNSQADDDIGFGIYTDIADLPMTGCPSYIEEGIGGVCESGTATIVVFDVPFQIVPNVVITLMPWQLVFIKEISEDFRITFFKISKDMFSETLSTLWRPASGFLLYMRKHIVSIPDGELIGRFLAYCNLLVYRMKHTPQNCRQESIMQLLRVYFWDVYTVYINDPQAEKSLKFTRKDEYVYQFVRLIIEDHSPDKDVAYFAQKLGISPKRLTNLIRSISGQSAREWIVYYTILEIKSLLRESSLDIKSIAARVNFPDQTTLSRYFRHYTGVTPSQYRKNIYF | not soluble
10 | MGSDKIHHHHHHMAESKIAERAFYQPGASSIEGMPTTLQLFHNHPPIMLRPHWHAQVEVNYVMSGSVHYRMGDHDLTLNAGQMCIFWGGQPHQMDRSSDDSFYAGAHLPLVHFFRMRLPAAISSQLMDGATMVSGETDRADAENFGRWFRYVTSGDPAKAQHAVEELLLRVERMFLEPYSVISSADHGKRKEDDEGMAPSIGVVRMCDFIAANFLDDIDAADIARAASLHPKYAMNLFRKSTGMTLIKYLTLLRLSRAQAMLMTGKDNILQIAMESGFGSVSAFNKAFRQISGMSPSDFRRDMRAAAA | not soluble
11 | MGSDKIHHHHHHMAFAQLQIVSSLADAYSKDGADALILIGNFDSIDDSALAETIQQAQITDQRVGKQPLLLKADGVPGQRLVAAPTGPLNRDFDDVRQVFDAAHAAAKVAQDAGARHPVIALNNVNVNDERYQQAFLAAYLGFCQALYQPLEAREAHGEEAIEPTQNVILVGELDVEWAMAVEAGKRVARDLAGTEPERMAPPKFAEYCRQAFAHTSVKVTVIDDYQQLQHEYPLLAAVGRSSMAVERHRPCVIRLEYHGNNPERTVMFAGKGIVYDTGGADLKTGGHMAGMSRDKGGAAGVAGFLKTVSELQPEHLNVVAEIGAVRNSIGSDAFVADEIITGHSGKRVRIGNTDAEGRLIMADLLSHLREEAAKSDGEHELYTVATLTGHAALSKGPYSALVPNGHARRQNLAQALFNAGETYGDPTEISWSRREDFDFVKGRTLCDDLLSSNNGPSAATPRGHQFPMAFLTGVSGLDNHGIDSEHPISYIHIDIAGSGVEGGDWQHGKPTAAPVTCLAGHYLKK | not soluble
12 | MGSDKIHHHHHHMAFTNNVMIVRHGLLAKLVKLWKENRLLEEIDRLPIELSPRKSKVRGRCCVHKERAVWKYKTLPLLGFDMQDEEDELTPLSEYAKRALFRSENKKENIMCVVDEACSSCVSVNYEITNLCRGCVARSCYMNCPKDAIRFKKNGQAEIDHETCISCGKCHQSCPYHAIVYIPIPCEEVCPVKAISKDKYGVEHIDESKCIYCGKCVNACPFGAIFEISQVFDILQRLRNKEQMVAIVAPSILAQFSAPKEKVYGAIKSLGFEEVVEVAQGAMETTRHEAEELIEKLKEGQPFMTTSCCPSYVQLAEKHIPDLKKYISSTGSPMYYTARIVKEKYPDAKIVFVGPCVAKRKEVKLDPCVDFTLTFEEVGSVLEGLGIKIEEAQPFSVLFNAVREAHGFAQSGGVINAVKVYLKDENVNAVQVANLTKKNVALLRAYAKTGKAPAQFIEVMACEGGCVTGPCTHADKTAGQKQLIKELTKF | not soluble
13 | MGSDKIHHHHHHMAGEDRDMETETETVCPGNTAGRFAAGEDPAKRDQILAGAWRVFKLKGFDAASMNDITREAGVSKGTIYVYFSNKEDLFAALVDHHRQEFATSMRNILAGTEEVRKGLEQFGKAFANKMICSDMIPAMRSVIGVIDRMPKLAQRFFIAAPNNVRTVLQDFIEHHIALGHLKVDDVELAARQYIELSTGTFFKLRLFGEIDGPVPEEELDRVIASAIKVFMAAYGTDKV | not soluble
14 | MGSDKIHHHHHHMAGLERGELRQALLAEVKKVCAGQGPEAVSISKIGKSLGVSSGAPFRLFPSREHIFAALIESEMERLDATFERIWSCKTTDPVLRLTDICQAYVDHARTEPAMFRLAFSVSAKAMGAVKLQKIGEDVYEKVQRAVAACVPRHTTTDQVELKSYLLWSTIHGHVMLCMTGQMDDQSIDLPDEIVVASAVQGILKAG | not soluble
15 | MGSDKIHHHHHHMAGTHLFHGCQAAPLLPESTPFYCTRTIFFKPAFYCVEGSGVKTNPMKINAGTPDSVNQQVIVIGAGVIGLANAVTLARRGFKVTVIDKEGVAAGASFGNAGHFATEQVFPLADPSLLPKLPKMLLDPLGPFRIRPAYFHRALPWFVRFIVNMMPARRQHNGNAIKALNARSMAATKELLTFCGRADLLVENGSLLVFETQDPRVMEQELALYNDAGIAVRLLSGDEARALEPDLSDAISGALWFTEVGHTPNPRAICEALADTLKALGGRIEIDSVCSLQGGNTPSVTTETGKVTKADKLLLCAGAWSRPLALKLGHRVPLETERGYHLMMPQHSGLKRPVASYERKFIITPMEDGTRLAGTVEFGGLNAPMSNARADCLLPHARVLLPKVFATARVSEGKRWMGFRPSLPDSLPVLGESQTPGVYFAFGHQHLGLTWAASSAELLGQLICGETPSIDLSPYCVKRFD | not soluble
16 | MGSDKIHHHHHHMAGVTKLTIAGFKSIRELRDFELRNLNVLIGANGAGKSNFIGFFKLLAEMYERRLQLFVQQQGGSDTLLHFSRKLTDKIEGELNFGTDYDHYRFELVVTNDNRLIFTNEQYWLHSRGSRPGEVGLLGGNKDESDLKKLAAQQKSPLIDDILNSTRVYHFHDTGEKAKVKQPHALNDTLRLKVDGANLAAYLRMLKTEHAESYRQIVDTIRLVAPFFDDFVFRADSASKIQLEWTERGDPDTPFTAHALSDGTLRFICLGTLLLQPWELMPATILIDEPELGLHPYAINLLADLLKRASEQKQLIVSTQSVELLDRLEPEDVIVVDRKDNASTFHRLDAVQLQDWLDDYSLGDLWKQNVLGGRPA | not soluble
17 | MGSDKIHHHHHHMAHHHGMRFPTPLIPATLIKRYKRFLADCRLEDGREITAHCANPGSMMGLAEPGMRVWLEPNDDPKKKLKYGWRLVEHTNGHFTGVDTSVPNRALKAALEAHEIAEFAAYSEVQAEVKYGQNSRIDFLLTDAKLPRCYVEVKSVTLSRQPGLAEFPDSVTARGTKHLRELAAMAEAGHRAVMLYLVQRTDCDRFALAADIDPAYAAEFETAHAKGVERLVIGTTITPEGVKIGDILPS | not soluble

— the DeepSol protein solubility set
